This is an account of results in article PMC1110745.

The data set addresses GST-AP-2alpha (Homo sapiens, UniProt P05549 1-437). In words: competition.

Chain of GST-AP-2alpha (P05549 whole entry): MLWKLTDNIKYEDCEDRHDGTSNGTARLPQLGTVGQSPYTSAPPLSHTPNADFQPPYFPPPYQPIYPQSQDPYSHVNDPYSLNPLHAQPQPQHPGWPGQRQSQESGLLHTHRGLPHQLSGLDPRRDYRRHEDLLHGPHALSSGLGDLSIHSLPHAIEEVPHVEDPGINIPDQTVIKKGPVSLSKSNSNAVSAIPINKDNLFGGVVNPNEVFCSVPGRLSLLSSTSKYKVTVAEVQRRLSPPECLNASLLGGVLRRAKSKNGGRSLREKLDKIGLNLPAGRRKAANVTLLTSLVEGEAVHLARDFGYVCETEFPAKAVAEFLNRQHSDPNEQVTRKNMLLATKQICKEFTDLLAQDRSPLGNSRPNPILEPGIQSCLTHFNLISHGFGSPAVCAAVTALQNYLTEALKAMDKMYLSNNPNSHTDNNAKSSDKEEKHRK

B1: O58 (dsDNA)
DNA 1: GATTGTCCCTACACTCGCCTCAGGCGATCATCGGAATACACGATGCTTGG
DNA 2: CCAAGCATCGTGTATTCCGATGATCGCCTGAGGCGAGTGTAGGGACAATC
Regarding B1, the binding result is “binds”.
